The values below come from US20240301041A1 (Regeneron, published 2024).

The target of experiment [1] is T1, IsdA.6xHis (Staphylococcus aureus, UniProt A6QG31 47-316).
T1 construct: also called IsdA-6× His; IsdA.6×His
T1 sequence: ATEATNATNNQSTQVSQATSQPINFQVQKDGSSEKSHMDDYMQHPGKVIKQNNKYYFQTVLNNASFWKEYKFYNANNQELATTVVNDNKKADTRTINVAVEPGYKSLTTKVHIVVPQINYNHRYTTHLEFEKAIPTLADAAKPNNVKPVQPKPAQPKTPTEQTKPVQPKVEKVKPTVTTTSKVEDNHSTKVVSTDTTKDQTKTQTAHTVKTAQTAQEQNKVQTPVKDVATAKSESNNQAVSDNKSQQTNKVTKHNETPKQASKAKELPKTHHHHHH
Nature of the experiment: SPR (Biacore), mAb captured by anti-human Fc, IsdA.6xHis injected, 25 C.
Procedure: (§1) The equilibrium dissociation constants (KD) to Protein A and IsdA.6×His reagents binding to purified anti-IsdA*/* and anti-Protein A*/* monoclonal antibodies were determined using a real-time surface plasmon resonance based Biacore T200 or Biacore 4000 biosensor. All binding studies were performed in 10 mM HEPES, 150 mM NaCl, 3.4 mM EDTA and 0.05% v/v Tween-20, pH 7.4 (HBS-EP) running buffer at 25° C. and 37° C. […] Proteins were injected over the captured anti-IsdA*/* and anti-Protein A*/* monoclonal antibody surface for 3-3.5 minutes at a flow rate of 30-50 μL/minute, while the dissociation of monoclonal antibody bound IsdA.6×His and Protein A reagent was monitored for 5-10 minutes in HBS-EP running buffer. The association rate (ka) and dissociation rate (kd) were determined by fitting the real-time binding sensorgrams to a 1:1 binding model with mass transport limitation using Scrubber 2.0c curve-fitting software. Binding dissociation equilibrium constant (KD) and dissociative half-life (t½) were calculated from the kinetic rates as:

For experiment [2], the target named is T1, IsdA.6xHis. Nature of the experiment: SPR (Biacore), mAb captured by anti-human Fc, IsdA.6xHis injected, 37 C.
Procedure: as §1

B1: H1xH20334P2*/* (anti-IsdA) (antibody, V domains shown)
VH: EVQLVESGGGLVQPGRSLRVSCAASGFTFDDYAMHWVRQIPGKGLEWVSGIRWNSDTIGYADSVKGRFTISRDNAKNFLYLQMNSLRTEDTALYYCVKDMRVRGIIMYGMDVWGQGTTVTVSS
VL: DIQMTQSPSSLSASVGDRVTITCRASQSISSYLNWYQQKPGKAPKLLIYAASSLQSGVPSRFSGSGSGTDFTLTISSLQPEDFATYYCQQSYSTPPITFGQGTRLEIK
notes: also called anti-IsdA*/* monoclonal antibody
In the case of B1, in experiment [1], the affinity, expressed as Kd, was 1.28 nM; the koff was found to be 0.000446 s⁻¹; the kon is 348000 M⁻¹ s⁻¹; the t½ turned out to be 26 min. For the same molecule, in experiment [2], the dissociation constant Kd was determined as 3.49 nM, the dissociation rate constant (koff) turned out to be 0.00167 s⁻¹, the on-rate constant (kon) was found to be 479000 M⁻¹ s⁻¹ and the t½ amounted to 7 min.
